Assay results from patent US9243032B2, “Compositions for treatment of neurodegenerative diseases” (Ramot at Tel-Aviv University Ltd., priority 2009, dated 2016).
Values joined by “and” are separate entries in the source; they are usually repeats but may differ in a detail not shown here. Equal entries are not always repeated. Square brackets hold non-standard residues; d marks the D form. Ends that are not written are not given here. Peptide text beside a SMILES is read from it.

Columns and labels:
[1] = target: T1, α-syn monomers (Homo sapiens, UniProt P37840); test: Fluorescence anisotropy affinity study; type: binding; conditions: FIG. 5B, read-out: affinity constant (Kd) towards α-syn monomers
T1 construct: made in house; host or cells: E. coli BL21, pT7-7 vector
Protocol: Fluorescence Anisotropy Studies: β-syn 36 in which tyrosine was substituted with tryptophan (SEQ ID NO: 22—[…]) was dissolved to a concentration of 54 μM. The solution was immediately mixed with α-syn monomer stock solution to varying final concentrations. The peptide polarization measurements were carried out using an ISS K2 fluorometer. The solutions were excited at 280 nm and emission was monitored at 350 nm. For each single point, at least five measurements were collected and their average values were used for the calculation. All experiments were performed using ultra pure water.
To determine the affinity of the interaction between β-syn 36 and α-syn monomers, a peptide containing tryptophan instead of tyrosine at position 39 within β-syn was used, exploiting its intrinsic fluorescence in a fluorescence anisotropy assay. […] Increasing amount of α-syn monomers were titrated into a solution of β-syn 36 peptide and anisotropy was determined (FIG. 5B). The affinity constant was calculated as ˜1 μM.

[2] = In vitro peptide stability in mouse brain homogenate; type: in vitro ADME; conditions: fresh mouse brain homogenate, 2 hours, 37° C., HPLC, FIGS. 6A-C
Protocol: In Vitro Assay of Peptide Stability: Peptides were dissolved to form a 1 mM solution in 50 μM Tris buffer (PH=7.6). 120 μl of the peptide solution was diluted into a 10% freshly-taken mouse brain homogenate without the cerebellum (in 1×Tris buffer and 0.5% Triton X-100). A mixture containing 20% peptide solution and 80% mouse brain homogenate was incubated at 37° C. with delicate shaking for 2 hours. The enzyme reaction was stopped by the addition of 0.1 M HCL solution, followed by denaturation of the protein using CH3OH and incubation at 20° C. for 1 hour. The precipitated proteins were centrifuged at 29,000×g for 20 minutes at 4° C. and the supernatant containing the peptide was concentrated under vacuum and separated using a C18 HPLC column. The area of the peak (UV absorbance at 280 nm) corresponding to the intact peptide was compared with an equivalent sample incubated in 50 μM Tris buffer.
Later, the stability of peptide β-syn 36 and the modified retro-inverso peptide was compared using fresh mouse brain homogenate to model serum degradation for a period of 2 hours.

[3] = tested on: flies expressing A53T α-syn in their nervous system; type: in vivo, Drosophila
Protocol: Fly Keeping: Flies were reared on standard corneal-molasses medium and were kept at 25° C. Male flies were crossed with virgin females collected no longer than 8 hours or 18 hours after eclosion at 25° C. or 18° C. respectively. Adult offspring (F1) from the crosses were collected up to 9 days after the beginning of their eclosion at 25° C. in order to avoid offspring from the next generation (F2).
Fly Crossing: Male flies carrying the driver elav-Ga14 on their X chromosome were crossed with females carrying the A53T α-syn transgene located on their X chromosome under the UAS promoter. […] Offspring of male flies carrying the driver elav-Ga14 crossed with WT OR females served as control.
Special Fly Feeding: β-syn retro-inverso peptide was added to standard corneal-molasses medium at a concentration of 0.75 mg/ml. The peptide was mixed thoroughly into the medium at 40° C. and the mixture was aliquot into rearing vials. The vials were kept at 4° C. until use. Crosses were performed either on regular Drosophila medium (control) or on medium supplemented with the peptide. Animals were fed on the appropriate medium from the beginning of the larval stage. After eclosion, offspring were transferred into a new vial that was pre-dripped with 0.75 mg/ml peptide solution every second day.
Locomotive (Climbing) Assay: Test tubes, each containing 10 flies, were tapped gently on the table and were let stand for 20 seconds. The percent of flies which climbed about one centimeter from the bottom of the test tube was then calculated over time. Each class had five independent test tube repeats.
In order to assess the effect of the peptide on α-syn in the living organism, a Drosophila model of PD was used. The transgenic flies over express the mutated […] α-syn in their nervous system, via the Gal4-UAS system. A common behavioral phenotype of these flies is defective locomotion; while normal flies tend to climb up along the tube, these flies remain at the bottom (Ueda et al., (1993) Proc Natl Acad Sci USA 90(23), 11282-11286). […] This cross was performed either on regular Drosophila medium or on medium supplemented with 0.75 mg/mL β-syn 36 retro-inverso peptide.

[4] = target: T2, α-syn (Homo sapiens, UniProt P37840); test: Soluble oligomer formation, Western blot; type: biochemical; conditions: soluble fraction, ~20-24 hours incubation, FIG. 4B
T2 construct: made in house; host or cells: E. coli BL21, pT7-7 vector
Protocol: Determination of Soluble Oligomer Formation: Monomeric α-syn was dissolved to a concentration of 200 μM in 100 mM Tris buffer (pH 7.4) and was immediately mixed with or without different β-syn derived peptides at a 1:1 ration to a final concentration of 100 μM, as was described above for the aggregation assay. […], 10 μl of the protein were centrifuged at 13000 RPM for 10 minutes, the supernatant was collected and electrophoresed in acrylamide gel using native loading buffer without β-mercaptoethanol and boiling. The gel was washed 3 times in ddH2O and samples were then transferred to the nitrocellulose membrane using semi-dry blot technique applying 323 mA current for 30 minutes. The membrane was blocked for 1 hour using 5% milk diluted in TBS (0.3% Tween) while shaking. Anti α-syn diluted 1:1000 (Santa Cruz Biotechnology) in 5% milk in TBS (0.3% tween) was added to the membrane for 2 hours incubation followed by several washes with TBS (0.3% Tween). Rabbit anti mouse IgG (Fc specific)-HRP conjugated antibody diluted 1:5000 in 5% milk diluted in TBS (0.3% Tween) was administrated for 1 hour at RT while shaking. Blots were developed after thorough TBS (0.3% Tween) washes using Enhanced Chemiluminescence System (ECL) according to the manufacturer's instructions.
To examine the ability of the peptides to inhibit the early stage of aggregation, soluble fractions of α-syn were collected after incubation with the β-syn peptides. The reaction mixtures were separated using SDS-PAGE followed by western blot analysis using a specific anti α-syn antibody (Santa-Cruz) (FIG. 4A).

[5] = target: T2, α-syn; test: ThT fluorescence assay of α-syn fibril formation; type: biochemical; conditions: for inhibition of fibril formation: as summarised in Example 4; for dose-dependent inhibition of α-syn aggregation: FIG. 3C
Protocol: ThT Florescence Assay: α-syn was dissolved to a concentration of 200 μM in 100 mM Tris buffer (pH 7.4). In order to obtain the monomeric fraction, the protein was filtered through a 100 kDa centricon. Since α-syn is not a globular protein but a natively unfolded one, only monomers and some dimers pass through the filter. […] The samples were incubated at 37° C. with agitation of 850 RPM as described by Tsigelny et al. (Tsigelny et al., 2007 Febs J 274(7), 1862-1877) and the fibrillogenesis rate was followed by thioflavin T (ThT) fluorescence assay (excitation at 450 nm, 2.5 nm slit, and emission at 480 nm, 5 nm slit), after three days of incubation. ThT was added to a 500-fold diluted sample and measured using a Jobin Yvon Horiba Fluoromax 3 fluorimeter.
In order to examine the inhibitory effect of the peptides on α-syn fibril formation, the Thioflavin-T (ThT) binding assay was used. This method provides quantitative information on amyloid fibril growth. α-syn was incubated for several days at 37° C. with vigorous shaking to allow the formation of amyloid fibrils with or without the different β-syn-derived peptides. The fibrillization process was monitored for three days.

[6] = target: T2, α-syn; test: Transmission electron microscopy of α-syn fibrils; type: biochemical; conditions: samples from the ThT experiment; FIGS. 3D-K
Protocol: Transmission Electron Microscopy: Samples (10 μL) from the α-syn ThT fluorescence assay (with and without inhibitors) were placed on 400-mesh copper grids covered by carbon-stabilized Formvar film (SPI Supplies, West Chester, Pa.). After 1.5 minutes, excess fluid was removed, and the grids were negatively stained with 10 μl of 2% uranyl acetate solution for 2 minutes. Finally, excess fluid was removed and the samples were viewed in a JEOL 1200EX electron microscope operating at 80 kV.
Transmission electron microscopy (TEM) analysis was performed on samples of α-syn with and without the β-syn inhibitors.

In the case of `CC(C)C[C@H](NC(=O)[C@@H](NC(=O)CN)C(C)C)C(=O)N[C@@H](Cc1c[nH]c2ccccc12)C(=O)N[C@H](C(=O)NCC(=O)N[C@@H](CO)C(=O)N[C@@H](CCCCN)C(=O)N[C@H](C(=O)N[C@@H](CCCNC(=N)N)C(=O)O)[C@@H](C)O)C(C)C` (H-GVLWVGSKTR-OH; N-terminus and C-terminus assumed), the Kd [1] is reported as ~1 µM and 1 µM.
In the case of `CC(C)C[C@@H](NC(=O)[C@@H](Cc1ccc(O)cc1)NC(=O)[C@H](NC(=O)CNC(=O)[C@@H](CO)NC(=O)[C@@H](CCCCN)NC(=O)[C@H](NC(=O)[C@H](N)CCCNC(=N)N)[C@H](C)O)C(C)C)C(=O)N[C@@H](C(=O)NCC(=O)O)C(C)C` [β-syn 36 retro-inverso peptide] (H-[dR][dT][dK][dS]G[dV][dY][dL][dV]G-OH), the “stability in brain homogenate” value [2] is reported as “elevation in stability”, the “stability in brain homogenate” value ([2]; listed as retro-inverso analogue) is reported as “stable in human serum” and the “increase in climbing compared to untreated group” value ([3]; A53T α-syn flies, day 27) is reported as 30%. For the same compound, the “percent of flies climbing” value ([3]; A53T α-syn flies, medium with 0.75 mg/mL peptide, day 27) was 66%, the “effect on locomotion of control flies” value ([3]; control flies on medium with peptide) was “no significant effect” and the “phenotypic recovery of A53T α-syn flies” value ([3]; medium with 0.75 mg/mL peptide) was “great phenotypic recovery”.
With “AATGLVKREE [β-syn 78, decamer, aa 78-87 of β-syn]” the “inhibition of oligomer formation” value [4] was “inhibited oligomers” and the “inhibition of fibril formation” value [5] was “not fibril formation”.
For “GVLYVGSKTR [β-syn 36, decamer, aa 36-45 of β-syn, natural L-amino acids]”, the “fibril formation by TEM” value [6] was “almost completely inhibited fibril formation”, the “inhibition of oligomer formation” value [4] was “inhibited almost completely the formation of both aggregation types” and the “dose-dependent inhibition of α-syn aggregation” value ([5]; ThT, peptide excess 5:1 (molar ratio)) was “less efficient”. For the same compound, the “dose-dependent inhibition of α-syn aggregation” value ([5]; ThT, peptide excess 10:1 (molar ratio)) was “still efficient”, the “inhibition of α-syn aggregation, kinetic analysis” value ([5]; ThT, β-syn 36 compared with β-syn 39, FIG. 3B) was “better inhibition” and the “inhibition of fibril formation” value [5] was “inhibited almost completely the formation of both aggregation types”.
With “SMAKEGV [β-syn 6short, seven amino acids peptide, aa 9-15 of β-syn, positive control selected by Windisch et al, reference compound]” the “inhibition of oligomer formation” value [4] was “not the oligomers formation” and the “inhibition of fibril formation” value [5] was “inhibited the fibrils”.
With “VLYVGSKTRE [β-syn 37, decamer, aa 37-46 of β-syn]” the “inhibition of oligomer formation” value [4] was “not the oligomers formation” and the “inhibition of fibril formation” value [5] was “inhibited the fibrils”.
In the case of “YVGSKTR ([dY][dV]G[dS][dK][dT][dR]) [β-syn 36D short, β-syn 36D lacking amino acids G, V, L]”, the “inhibition effect on α-syn aggregation” value ([5]; ThT, FIG. 7F) is reported as “no inhibition effect”.
